For the experiment, the target named is human CD8 on human T cells (human) (UniProt P01732). Briefly: cell-based or functional assay.

Drawing on US20260055186A1, this text covers tumor cell survival, SK-MEL-5 with MART-1 T cells for 2 substances.

Sequence of human CD8 on human T cells (human) (P01732 22-235): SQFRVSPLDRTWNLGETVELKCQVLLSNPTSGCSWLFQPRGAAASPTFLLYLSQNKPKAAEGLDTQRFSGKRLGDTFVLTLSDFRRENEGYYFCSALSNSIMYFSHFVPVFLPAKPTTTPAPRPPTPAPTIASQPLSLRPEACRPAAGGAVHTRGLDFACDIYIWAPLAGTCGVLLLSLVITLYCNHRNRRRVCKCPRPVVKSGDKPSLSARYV

For the substance SK1 (antibody), the tumor cell survival, SK-MEL-5 with MART-1 T cells stood at 2 fold. For the substance 51.1 (antibody), the tumor cell survival, SK-MEL-5 with MART-1 T cells turned out to be 2 fold.
